The source of these data is the RNAGym collection of RNA variant scans (doi:10.7554/elife.90254).

The chains are these.
B1: LINE1-full (parent)
chain: UACGUAGGUGGUUUUCCCCUGAUAGUGCUAAGGGGGCCUGGAAGUUUGGACUGGGCAGAGCUCAACACAGCGUGGCAAAGUGGCUGUGGCUAGACUGCCUCUCUGGAUUCCUCGUCACUCAGCAGGGCAUCUCUGAGAGAAAUGCC

Variants of B1 are the subject of this series. The experiment in a line: self-cleavage, relative activity (ratio to wild type); higher = more cleavage; in vitro, sequencing; the parent is a self-cleaving ribozyme.
Consider A30U U132C, for which the self-cleavage was 1.07.

For the variant G35A A64U, the self-cleavage was 0.31.

A31U A64G: the self-cleavage amounted to 0.2.

For the variant G33A A136G, the self-cleavage turned out to be 1.35.

As to G34U A92G, the self-cleavage stood at 0.14.

Regarding A31U U115G, the self-cleavage is 0.37.

With A31U U115C, the self-cleavage was 1.32.

A31U U85G: the self-cleavage stood at 0.15.

As for A31G C123U, the self-cleavage came out at 1.02.

Regarding A31G U100C, the self-cleavage worked out at 1.29.

Take A31G U130G: the self-cleavage was 1.84.

Turning to A31G A67G, the self-cleavage came to 0.5.

Consider A31G G72A, for which the self-cleavage was determined as 0.77.

On to G33U G74A, for which the self-cleavage was 0.88.

For G32U U115A, the self-cleavage was 1.04.

On to G34A U112C, for which the self-cleavage was 0.94.

For G34A A107U, the self-cleavage was determined as 1.2.

For the variant G34A U102A, the self-cleavage is 1.16.

For the variant G33U U73A, the self-cleavage came to 1.38.

With A31U U52C, the self-cleavage is 0.87.

For the variant A31U U52A, the self-cleavage was 1.73.

Consider A31U U104A, for which the self-cleavage stood at 1.15.

On to G32A G122A, for which the self-cleavage came out at 2.13.

A31U A57G: the self-cleavage worked out at 1.

In the case of A31U A67G, the self-cleavage is 0.41.

Consider A30U U134C, for which the self-cleavage was determined as 1.22.

Take A31G G139U: the self-cleavage amounted to 1.67.

Consider A31G G139A, for which the self-cleavage was 1.19.

In the case of G33A A138U, the self-cleavage is 1.19.

Take G34C U115C: the self-cleavage is 1.82.

Take A31G A79G: the self-cleavage amounted to 1.23.

Turning to G34A U130C, the self-cleavage stood at 1.32.

For the variant G32A A59G, the self-cleavage was 0.02.

Turning to G32A A79G, the self-cleavage stood at 1.26.

On to A31G A142G, for which the self-cleavage stood at 1.17.

G32A U96A: the self-cleavage came to 0.05.

Turning to A31U U119C, the self-cleavage came out at 1.62.

For A31C U104A, the self-cleavage came out at 2.67.

Take G34A U62C: the self-cleavage was found to be 0.02.

For the variant G34A U46A, the self-cleavage is 1.2.

As to A31G U73A, the self-cleavage came out at 0.79.

Consider A31G U73C, for which the self-cleavage amounted to 0.77.

As for A31G A42G, the self-cleavage turned out to be 0.96.

For G35A A107U, the self-cleavage was determined as 1.41.

For G35A U45C, the self-cleavage worked out at 0.97.

For the variant G33U U85C, the self-cleavage came out at 0.06.

For the variant G32A U39C, the self-cleavage amounted to 1.07.

Turning to G34U U100C, the self-cleavage came to 1.5.

In the case of G33A U130C, the self-cleavage was found to be 1.04.

Regarding G35A A50G, the self-cleavage is 0.58.

Turning to G35A A92C, the self-cleavage was found to be 0.05.

For the variant G32C A67G, the self-cleavage came out at 0.

Regarding G34A G72A, the self-cleavage was determined as 1.24.

Turning to G33C U45C, the self-cleavage came to 1.95.

Regarding G32A G34A, the self-cleavage turned out to be 0.73.

For the variant A31U G86A, the self-cleavage came to 0.05.

Turning to G34U U115C, the self-cleavage worked out at 1.84.

On to A31G A138G, for which the self-cleavage is 0.86.

As for G34A U132A, the self-cleavage worked out at 1.51.

On to G32C U85C, for which the self-cleavage worked out at 0.27.

For G34U C146U, the self-cleavage stood at 1.39.

For the variant G32U G55A, the self-cleavage turned out to be 0.18.

G32A A57G: the self-cleavage came to 1.37.

G32U U132A: the self-cleavage is 1.2.

In the case of A31G U46C, the self-cleavage turned out to be 1.67.

Take A31U U46G: the self-cleavage amounted to 1.67.

Consider G33A U52A, for which the self-cleavage was 0.53.

With G35A G83C, the self-cleavage was found to be 0.71.

As for G32A U102A, the self-cleavage was 0.63.

Regarding G32A U108C, the self-cleavage is 0.76.

For the variant G34A U47C, the self-cleavage stood at 1.18.

For the variant A31G A121G, the self-cleavage amounted to 1.24.

On to A31G A78G, for which the self-cleavage was determined as 0.96.

With G34U U104C, the self-cleavage was 1.34.

In the case of G34A G114A, the self-cleavage is 1.47.

With G32A A77G, the self-cleavage came out at 1.56.

Regarding G34C A124G, the self-cleavage is 2.03.

For G34C A124U, the self-cleavage is 1.91.

In the case of G32A A121G, the self-cleavage turned out to be 1.53.

Regarding G32A A121U, the self-cleavage is 1.45.

With G35A G36C, the self-cleavage is 1.05.

Regarding A31U G33C, the self-cleavage was determined as 0.81.

Regarding G34C A138G, the self-cleavage was 2.05.

For the variant G35A G72A, the self-cleavage is 1.18.

As to A31U U109A, the self-cleavage worked out at 1.69.

Take A31U U109C: the self-cleavage was 1.17.

On to G34U U47G, for which the self-cleavage was determined as 1.04.

For the variant A31U G126U, the self-cleavage is 0.79.

For the variant G34A C146A, the self-cleavage came out at 1.39.

Turning to G32A A64U, the self-cleavage turned out to be 0.36.

Consider G32A A64G, for which the self-cleavage amounted to 0.24.

In the case of G32U U134C, the self-cleavage came out at 0.74.

On to G33U U119C, for which the self-cleavage worked out at 1.19.

G33A U119C: the self-cleavage was 0.66.

G32A U46C: the self-cleavage was 1.19.

In the case of G32A A138U, the self-cleavage amounted to 0.89.

Take G33A G55A: the self-cleavage was found to be 0.73.

For G32U U73A, the self-cleavage was determined as 0.89.

Regarding A31G U104A, the self-cleavage came out at 0.48.

G35A U109A: the self-cleavage is 1.59.

With A31G A124U, the self-cleavage is 1.3.

G34U A42U: the self-cleavage worked out at 1.15.

With G35A, the self-cleavage is 1.1.

A31U C146A: the self-cleavage amounted to 0.88.

In the case of A31U C146U, the self-cleavage is 0.94.

In the case of G34C A140U, the self-cleavage was found to be 1.31.

On to G34C A140C, for which the self-cleavage was found to be 1.79.

A31C A78G: the self-cleavage came out at 1.1.

Regarding G34U A136G, the self-cleavage amounted to 1.54.

Regarding G32C A117G, the self-cleavage is 1.53.

Take G34C U96C: the self-cleavage was found to be 0.14.

For the variant A31U U130C, the self-cleavage amounted to 1.23.

Regarding A31G A129U, the self-cleavage came out at 0.84.

For A31G U132C, the self-cleavage was 0.85.

Take G33A U46C: the self-cleavage worked out at 1.12.

With A31C U85C, the self-cleavage is 0.54.

For A31G U85A, the self-cleavage was determined as 0.11.

In the case of A31G U85C, the self-cleavage turned out to be 0.33.

In the case of G34A U96A, the self-cleavage is 0.05.

In the case of G34A U96C, the self-cleavage was determined as 0.05.

On to G34A U96G, for which the self-cleavage was 0.09.

For the variant G33C A136G, the self-cleavage was determined as 0.

Consider A31U A59U, for which the self-cleavage is 0.39.

In the case of A31U A59G, the self-cleavage is 0.14.

On to G32A C68U, for which the self-cleavage came to 0.

Take G33C U115C: the self-cleavage is 2.26.

As for G35A A140G, the self-cleavage is 0.81.

For the variant G32C U87A, the self-cleavage is 0.06.

G34U U108C: the self-cleavage was found to be 1.56.

As for A31U U39C, the self-cleavage was 0.73.

Turning to A31U U39G, the self-cleavage turned out to be 0.93.

Regarding G34U A140U, the self-cleavage was 1.64.

For the variant G34U A140G, the self-cleavage amounted to 1.67.

Take G34C C37U: the self-cleavage turned out to be 0.84.

G32A A129G: the self-cleavage is 0.93.

For the variant G32A A129U, the self-cleavage came out at 1.15.

On to A31U U81A, for which the self-cleavage was 1.57.

G32A A50G: the self-cleavage was 0.93.

As to A31G U91A, the self-cleavage is 0.3.

For the variant G33A A140G, the self-cleavage worked out at 1.29.

For the variant A31U A136U, the self-cleavage was 0.55.

Consider A31U A124U, for which the self-cleavage turned out to be 1.42.

Regarding A31U A124G, the self-cleavage turned out to be 1.09.

Regarding A31G A92U, the self-cleavage stood at 0.91.

For the variant G34U A69G, the self-cleavage is 0.47.

As for A31G U81A, the self-cleavage was 0.66.

As to A31G U81C, the self-cleavage was found to be 0.69.

Turning to G33C G89U, the self-cleavage came out at 0.06.

For G32A G82A, the self-cleavage is 2.01.

For G32A C51U, the self-cleavage turned out to be 0.88.

Regarding A31G C145G, the self-cleavage is 1.63.

With A31G U108C, the self-cleavage is 1.26.

As to G33C, the self-cleavage was determined as 1.17.

Consider G33U, for which the self-cleavage is 1.27.

On to G33A, for which the self-cleavage came out at 1.14.

As to A31G C113U, the self-cleavage turned out to be 1.03.

As for A31G A64U, the self-cleavage stood at 0.48.

Turning to G34C U73C, the self-cleavage was determined as 1.82.

With G33U G75U, the self-cleavage was found to be 0.91.

Regarding A31G U134A, the self-cleavage turned out to be 0.45.

Take A31G U134C: the self-cleavage is 1.53.

With A31G A59C, the self-cleavage worked out at 1.53.

Take A31G A59G: the self-cleavage amounted to 0.16.

With A31G A59U, the self-cleavage stood at 0.42.

Take A31G A69U: the self-cleavage is 0.12.

In the case of A31U U47C, the self-cleavage was 1.08.

In the case of A31G A77U, the self-cleavage was 0.86.
